According to the Human Domainome abundance scans (Beltran et al. 2025):
± gives the uncertainty stated by the source.

B1: Zinc finger homeobox protein 3, residues 2147 to 2202; numbered along this chain, Q15911 (parent)
chain: RPRTRITDDQLRVLRQYFDINNSPSEEQIKEMADKSGLPQKVIKHWFRNTLFKERQ

Variants of: B1
Assay: abundance fitness (aPCA) (normalised: wild type 0, dead -1); higher = more abundant; growth selection in yeast, the domain comes from the species named
Conditions: Homo sapiens

I20N and I20L are within error of each other in abundance fitness: 0.008 ± 0.14 for the first, -0.036 ± 0.072 for the second.

Compared with I20A, Q56H is lower in abundance fitness: 0.009 ± 0.074 for the first, -0.5 ± 0.43 for the second.

Going from Q56R to Q10Y, the abundance fitness falls from 0.166 ± 0.17 to -0.626 ± 0.11.

Going from Q10A to E27M, the abundance fitness rises from -0.263 ± 0.07 to -0.039 ± 0.097.

E27K and H45I are within error of each other in abundance fitness: 0.124 ± 0.11 for the first, -0.09 ± 0.13 for the second.

H45G and H45D are within error of each other in abundance fitness: 0.007 ± 0.085 for the first, 0.109 ± 0.12 for the second.

Going from K30N to K30Q, the abundance fitness rises from -0.637 ± 0.2 to -0.323 ± 0.11.

K30R and K30L are within error of each other in abundance fitness: -0.193 ± 0.072 for the first, -0.239 ± 0.088 for the second.

Compared with K30S, P24W is lower in abundance fitness: -0.205 ± 0.092 for the first, -0.485 ± 0.088 for the second.

First: P24V
Second: P24A
The abundance fitness of the first is higher: -0.413 ± 0.072 for the first, -0.606 ± 0.082 for the second.

First: P24L
Second: L11T
The abundance fitness of the first is lower: -0.315 ± 0.076 for the first, -0.026 ± 0.095 for the second.

Compared with L11G, L11K is higher in abundance fitness: -0.088 ± 0.063 for the first, 0.095 ± 0.099 for the second.

First: L11Q
Second: L38Y
The abundance fitness of the first is higher: -0.01 ± 0.09 for the first, -1.05 ± 0.33 for the second.

First: L38S
Second: D34L
The abundance fitness of the first is lower: -0.712 ± 0.095 for the first, -0.123 ± 0.081 for the second.

D34G and R1I are within error of each other in abundance fitness: -0.011 ± 0.07 for the first, -0.433 ± 0.46 for the second.

R1S and R1L are within error of each other in abundance fitness: -0.399 ± 0.14 for the first, -0.303 ± 0.17 for the second.

R1W and I29D are within error of each other in abundance fitness: -0.979 ± 0.18 for the first, -1.17 ± 0.26 for the second.

Compared with I29T, I29W is lower in abundance fitness: -0.109 ± 0.12 for the first, -0.387 ± 0.1 for the second.

Going from G37T to G37R, the abundance fitness rises from -0.342 ± 0.11 to -0.071 ± 0.077.

G37K and K44A are within error of each other in abundance fitness: -0.048 ± 0.11 for the first, -0.096 ± 0.097 for the second.

K44G and K44M are within error of each other in abundance fitness: -0.11 ± 0.082 for the first, -0.2 ± 0.14 for the second.

K44W and K44L are within error of each other in abundance fitness: -0.176 ± 0.1 for the first, -0.03 ± 0.088 for the second.

K44N and K44S are within error of each other in abundance fitness: -0.334 ± 0.19 for the first, -0.214 ± 0.12 for the second.

Going from K44Y to L14A, the abundance fitness falls from -0.354 ± 0.18 to -0.951 ± 0.094.

Going from L14V to L14P, the abundance fitness falls from -0.49 ± 0.076 to -1.05 ± 0.16.

L14Q and L14Y are within error of each other in abundance fitness: -1.13 ± 0.15 for the first, -1.02 ± 0.17 for the second.

Compared with L14I, L14K is lower in abundance fitness: -0.217 ± 0.15 for the first, -1.03 ± 0.18 for the second.

First: T4Y
Second: T4R
The abundance fitness of the first is higher: -0.005 ± 0.2 for the first, -0.393 ± 0.086 for the second.

T4N and T4I are within error of each other in abundance fitness: 0.134 ± 0.19 for the first, -0.02 ± 0.16 for the second.

M32I and M32D are within error of each other in abundance fitness: -0.191 ± 0.21 for the first, -0.466 ± 0.19 for the second.

Compared with E26W, E26A is higher in abundance fitness: -0.265 ± 0.084 for the first, -0.043 ± 0.073 for the second.

E26T and E26M are within error of each other in abundance fitness: -0.057 ± 0.091 for the first, -0.133 ± 0.11 for the second.

E26L and E26I are within error of each other in abundance fitness: -0.089 ± 0.073 for the first, 0.086 ± 0.12 for the second.

First: T50E
Second: R48P
The abundance fitness of the first is higher: -0.047 ± 0.12 for the first, -0.461 ± 0.14 for the second.

Going from R48I to R48W, the abundance fitness falls from -0.009 ± 0.14 to -0.306 ± 0.089.

First: R48C
Second: V42K
The abundance fitness of the first is lower: -0.446 ± 0.14 for the first, -0.051 ± 0.15 for the second.

Compared with V42P, V42N is higher in abundance fitness: -0.618 ± 0.18 for the first, -0.15 ± 0.17 for the second.

F18Y and F18S are within error of each other in abundance fitness: 0.016 ± 0.14 for the first, -0.1 ± 0.076 for the second.

Going from F18N to F18T, the abundance fitness rises from -0.451 ± 0.17 to -0.109 ± 0.091.

Going from R15H to R15V, the abundance fitness falls from 0.099 ± 0.11 to -0.226 ± 0.077.

Compared with R15W, I6C is lower in abundance fitness: -0.125 ± 0.073 for the first, -0.4 ± 0.12 for the second.

Going from I6Y to I6N, the abundance fitness falls from -0.123 ± 0.11 to -0.401 ± 0.14.

Going from R55L to R55W, the abundance fitness falls from -0.179 ± 0.084 to -0.396 ± 0.099.

L51S and L51Y are within error of each other in abundance fitness: 0.015 ± 0.083 for the first, -0.007 ± 0.21 for the second.

L51R and L51N are within error of each other in abundance fitness: -0.013 ± 0.07 for the first, -0.014 ± 0.14 for the second.

Compared with L51T, L51K is higher in abundance fitness: -0.059 ± 0.096 for the first, 0.244 ± 0.13 for the second.

N22Q and N22C are within error of each other in abundance fitness: 0.038 ± 0.091 for the first, 0.001 ± 0.11 for the second.

First: N22R
Second: K53C
The abundance fitness of the first is higher: 0.116 ± 0.069 for the first, -0.269 ± 0.14 for the second.

First: K53Q
Second: N21L
The abundance fitness of the first is higher: 0.055 ± 0.095 for the first, -0.256 ± 0.079 for the second.

N21I and N21W are within error of each other in abundance fitness: -0.276 ± 0.13 for the first, -0.38 ± 0.12 for the second.

First: N21C
Second: N21F
The abundance fitness of the first is higher: -0.14 ± 0.11 for the first, -0.421 ± 0.11 for the second.

A33Q and A33W are within error of each other in abundance fitness: -0.185 ± 0.22 for the first, -0.556 ± 0.16 for the second.

A33G and N49H are within error of each other in abundance fitness: -0.212 ± 0.12 for the first, -0.451 ± 0.29 for the second.

N49S and N49Q are within error of each other in abundance fitness: -0.06 ± 0.11 for the first, -0.075 ± 0.15 for the second.

S23L and S23M are within error of each other in abundance fitness: -0.149 ± 0.087 for the first, -0.035 ± 0.13 for the second.

Y17C and Y17W are within error of each other in abundance fitness: -0.204 ± 0.083 for the first, -0.181 ± 0.074 for the second.

Y17F and R5A are within error of each other in abundance fitness: 0.026 ± 0.12 for the first, -0.051 ± 0.076 for the second.

R5D and R5K are within error of each other in abundance fitness: 0.235 ± 0.087 for the first, 0.093 ± 0.1 for the second.

First: R5E
Second: I43A
The abundance fitness of the first is higher: 0.155 ± 0.12 for the first, -0.534 ± 0.089 for the second.

I43D and I43Q are within error of each other in abundance fitness: -1.12 ± 0.23 for the first, -1 ± 0.17 for the second.

S36F and S36C are within error of each other in abundance fitness: -0.099 ± 0.1 for the first, -0.156 ± 0.1 for the second.

Compared with S36V, P2D is higher in abundance fitness: -0.031 ± 0.085 for the first, 0.38 ± 0.14 for the second.

P39H and P39M are within error of each other in abundance fitness: -0.079 ± 0.18 for the first, -0.258 ± 0.097 for the second.

Going from P39F to P39C, the abundance fitness rises from -0.746 ± 0.22 to -0.192 ± 0.15.

First: P39Q
Second: Q40E
The abundance fitness of the first is lower: -0.167 ± 0.11 for the first, 0.105 ± 0.13 for the second.

Q40D and Q40R are within error of each other in abundance fitness: -0.06 ± 0.19 for the first, 0.022 ± 0.071 for the second.

Q40V and Q40S are within error of each other in abundance fitness: -0.046 ± 0.084 for the first, 0.014 ± 0.091 for the second.

S25D and S25E are within error of each other in abundance fitness: -0.225 ± 0.16 for the first, -0.111 ± 0.089 for the second.

Going from S25C to R3L, the abundance fitness rises from -0.244 ± 0.12 to -0.014 ± 0.082.

First: R3M
Second: R3F
The abundance fitness of the first is higher: 0.293 ± 0.11 for the first, -0.275 ± 0.15 for the second.

First: R3D
Second: D8G
The abundance fitness of the first is higher: 0.215 ± 0.14 for the first, -0.063 ± 0.062 for the second.

Going from D8N to D8P, the abundance fitness rises from -0.211 ± 0.11 to 0.149 ± 0.095.

D8T and D8S are within error of each other in abundance fitness: -0.001 ± 0.081 for the first, 0.02 ± 0.075 for the second.

K35C and K35H are within error of each other in abundance fitness: -0.382 ± 0.12 for the first, -0.536 ± 0.15 for the second.

K35A and K35G are within error of each other in abundance fitness: -0.279 ± 0.097 for the first, -0.402 ± 0.084 for the second.

Going from F47S to F47Y, the abundance fitness rises from -0.632 ± 0.093 to -0.273 ± 0.19.

First: W46E
Second: W46S
The abundance fitness of the first is higher: -0.348 ± 0.17 for the first, -0.83 ± 0.13 for the second.

W46D and D9T are within error of each other in abundance fitness: -0.361 ± 0.41 for the first, 0.038 ± 0.081 for the second.

D9G and D9M are within error of each other in abundance fitness: -0.068 ± 0.062 for the first, -0.082 ± 0.089 for the second.

Going from D9V to D9Q, the abundance fitness rises from -0.172 ± 0.073 to 0.018 ± 0.11.

Compared with D9L, D9C is higher in abundance fitness: -0.106 ± 0.072 for the first, 0.158 ± 0.1 for the second.

Going from Q28F to K41V, the abundance fitness rises from -0.562 ± 0.15 to -0.108 ± 0.091.

K41G and K41L are within error of each other in abundance fitness: 0.108 ± 0.079 for the first, -0.004 ± 0.094 for the second.

In the case of K41F, the abundance fitness is reported as -0.274 ± 0.25.
